Measurements published in patent US20090035818A1.

Columns and labels:
[1] = target: chicken egg yolk antibody (chicken IgY antibody) (chicken); assay: SPR (Biacore 2000), chicken IgY on CM5 chip, lectin as analyte
[2] = target: asialotransferrin (human) (UniProt P02787); assay: SPR, asialotransferrin on CM5 chip, lectin as analyte
asialotransferrin (human), sequence (P02787 20-698 limits assumed): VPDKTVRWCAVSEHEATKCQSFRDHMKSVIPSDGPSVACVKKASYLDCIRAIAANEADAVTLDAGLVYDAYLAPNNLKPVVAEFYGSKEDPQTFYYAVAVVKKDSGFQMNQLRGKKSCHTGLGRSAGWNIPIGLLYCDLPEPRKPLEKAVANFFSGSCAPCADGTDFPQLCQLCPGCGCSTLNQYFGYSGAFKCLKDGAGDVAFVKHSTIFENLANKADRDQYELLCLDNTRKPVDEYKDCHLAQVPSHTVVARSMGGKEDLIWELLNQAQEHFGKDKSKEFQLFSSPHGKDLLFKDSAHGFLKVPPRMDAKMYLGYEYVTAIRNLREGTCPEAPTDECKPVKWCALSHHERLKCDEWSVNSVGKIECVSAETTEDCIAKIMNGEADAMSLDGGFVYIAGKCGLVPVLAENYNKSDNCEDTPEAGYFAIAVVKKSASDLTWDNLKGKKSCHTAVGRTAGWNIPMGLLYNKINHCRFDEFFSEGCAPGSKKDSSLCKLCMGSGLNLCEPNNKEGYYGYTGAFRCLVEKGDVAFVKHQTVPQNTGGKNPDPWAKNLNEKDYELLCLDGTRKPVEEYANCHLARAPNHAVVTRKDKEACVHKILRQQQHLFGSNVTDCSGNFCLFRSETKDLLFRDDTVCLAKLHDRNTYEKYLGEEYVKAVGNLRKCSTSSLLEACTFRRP

Substance	Ka [1] [M⁻¹]	Kd [1] [µM]	koff [1] [s⁻¹]	kon [1] [M⁻¹ s⁻¹]	Ka [2] [M⁻¹]
Canavallia ensiformis-derived lectin Con A (from UniProt P02866 30-281)	1.87e+07	0.0534	2.49e-05	467	
Carpopeltis flabellata-derived lectin Carnin	6.57e+07	0.0152	0.00172	113000	1e+08
Solieria robusta-derived lectin Solnin B	2.88e+07	0.0347	0.00564	162000	
Hypnea japonica-derived lectin Hypnin A-1	7.1e+07	0.0141	0.000298	21200	
